Assays:
[1] = biological target: human platelet glycoprotein Ib alpha (GPIb α) on human platelets (human) (UniProt P07359); assay: cell-based or functional assay
[2] = biological target: human platelet glycoprotein Ib alpha (GPIb α) on human platelets (human) (UniProt P07359); assay: blocking in a parallel-plate flow chamber: human whole blood treated with mAb 6D1 perfused over surface-immobilized murine plasma VWF R1326H (the blocked ligand), shear rate 1,600 s^-1; about 4,600 without antibody
[3] = biological target: human platelet glycoprotein Ib alpha (GPIb α) on human platelets (human) (UniProt P07359); assay: translocation of human platelets on immobilized plasma VWF in flow
[4] = biological target: murine platelet glycoprotein Ib alpha (GPIb α) on mouse platelets (mouse) (UniProt O35930); assay: cell-based or functional assay
Sequence of murine platelet glycoprotein Ib alpha (GPIb α) on mouse platelets (mouse) (O35930 17-734): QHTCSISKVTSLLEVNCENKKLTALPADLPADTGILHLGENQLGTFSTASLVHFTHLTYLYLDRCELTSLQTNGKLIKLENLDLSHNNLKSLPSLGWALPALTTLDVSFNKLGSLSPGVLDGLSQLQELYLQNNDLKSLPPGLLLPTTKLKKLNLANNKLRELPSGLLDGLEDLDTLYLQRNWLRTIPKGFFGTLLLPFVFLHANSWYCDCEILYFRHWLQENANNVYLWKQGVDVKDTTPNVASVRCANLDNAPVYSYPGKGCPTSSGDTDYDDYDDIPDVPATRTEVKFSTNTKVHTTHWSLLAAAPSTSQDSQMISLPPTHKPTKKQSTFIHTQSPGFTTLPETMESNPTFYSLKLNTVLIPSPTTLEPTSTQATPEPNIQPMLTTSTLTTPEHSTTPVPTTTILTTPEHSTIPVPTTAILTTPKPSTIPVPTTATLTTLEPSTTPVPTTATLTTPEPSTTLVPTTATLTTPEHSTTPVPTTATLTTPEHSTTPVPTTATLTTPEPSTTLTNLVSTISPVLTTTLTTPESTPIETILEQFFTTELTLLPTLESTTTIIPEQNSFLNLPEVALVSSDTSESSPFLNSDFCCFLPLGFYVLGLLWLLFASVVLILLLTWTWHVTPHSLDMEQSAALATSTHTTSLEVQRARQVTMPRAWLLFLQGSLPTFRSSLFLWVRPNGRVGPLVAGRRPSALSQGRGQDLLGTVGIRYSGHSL

[5] = biological target: human platelet glycoprotein Ib alpha (GPIb α) on human platelets (human) (UniProt P07359); assay: human whole blood over immobilized protein, parallel-plate flow chamber, 1600 s^-1
[6] = biological target: human platelet glycoprotein Ib alpha (GPIb α) on human platelets (human) (UniProt P07359); assay: blocking in a parallel-plate flow chamber: human whole blood treated with mAb AP-1 perfused over surface-immobilized murine plasma VWF R1326H (the blocked ligand), shear rate 1,600 s^-1; about 4,600 without antibody
[7] = biological target: human platelet integrin αIIb β3 on human platelets (human) (UniProt P08514); assay: cell-based or functional assay

For “function-blocking monoclonal antibody 6D1 (anti-human GPIb α)”, the human platelet thrombus size in VWF^1326R>H mice after pre-treatment with the mAb [1] was 265 µm^2 and the Human platelet accumulation/mm2 [2] was 0 /mm2.

For “murine plasma VWF containing the 1326R>H mutation (VWF^1326R>H), Q8CIZ8 764-2813”, the translocation velocity of human platelets [3] was 3.5 µm/sec, the average thrombus size, human platelets in homozygous VWF^1326R>H mice [1] was 8950 µm^2 and the share of human cells in thrombi, laser injury in homozygous VWF^1326R>H mice [1] was 91.7%. The tail bleeding time of VWF^1326R>H mice infused with human platelets [1] was 182 s, the increase in tail bleeding time, heterozygous animals versus WT [4] was 1.9 fold and the reduction in thrombi formed on collagen, whole blood of knock-in mice, 1600 s^-1 [4] was 70%. For the same substance, the reduction in thrombus formation on surface-immobilized collagen, whole blood of homozygous mutant mice (FIG. 26) [4] was 80%.

Work on “murine plasma von Willebrand factor (VWF), wild type, Q8CIZ8 764-2813” yielded a platelet deposition relative to same-species control [5] of 10%, a share of human platelets in total thrombus area, WT mice [1] of 5.7% and a ristocetin-induced platelet aggregation (RIPA), murine PRP, 2.5 mg/ml ristocetin [4] of 30%.

With GPIb α function-blocking antibody AP-1 the Human platelet accumulation/mm2 [6] was 0 /mm2 and the human platelet thrombus size in VWF^1326R>H mice after pre-treatment with the mAb [1] was 198 µm^2.

With “function-blocking monoclonal antibody 7E3 (anti-human αIIb β3)” the human platelet thrombus size in VWF^1326R>H mice after pre-treatment with the mAb [7] was 529 µm^2.
